What was measured:
[1] = target: collagen (ECM compound added to PBS in the FCS diffusion test solution); experiment: cell-based or functional assay
[2] = target: T1, porcine Collagen type II (USBiological C7510-31) (porcine); experiment: SPR (BIAcore T200), collagen II amine-coupled on chip, construct injected 1.23-900 nM, 25 C, 1:1 Langmuir fit
T1 construct: Bought material, immobilised by amine coupling on the sensor chip; also called porcine collagen II
Method: (§1) Binding kinetics of anti-collagen antibodies to human Collage type II (Millipore CC052) and porcine Collagen type II (USBiological C7510-31) was investigated by surface plasmon resonance using a BIAcore T200 instrument (GE Healthcare). All experiments were performed at 25° C. using HBS-P (10 mM […], 140 mM NaCl, 0.05% Tween 20 pH 7.4) as running and dilution buffer. Collagen type II was immobilized on a Series S CMS Sensor Chip (GE Healthcare) using standard amine coupling chemistry. Anti-Collagen antibodies were injected for 180 s with concentrations from 1.23 up to 900 nM (1:3 dilution series) onto the surface (association phase). The dissociation phase was monitored for 600 sec by washing with running buffer. The surface was regenerated by injecting 0.85% H₃PO₄ for 60 sec. Bulk refractive index differences were corrected by subtracting the response obtained from a mock surface. Blank injections were subtracted (double referencing). The derived curves were fitted to a 1:1 Langmuir binding model using the BIAevaluation software.

[3] = target: T2, human Collagen type II (Millipore CC052) (human, UniProt P02458 182-1241, limits assumed); experiment: as above
T2 construct: Bought material, immobilised by amine coupling on the sensor chip; also called human collagen II
Method: as §1

T2 sequence (P02458 182-1241 limits assumed): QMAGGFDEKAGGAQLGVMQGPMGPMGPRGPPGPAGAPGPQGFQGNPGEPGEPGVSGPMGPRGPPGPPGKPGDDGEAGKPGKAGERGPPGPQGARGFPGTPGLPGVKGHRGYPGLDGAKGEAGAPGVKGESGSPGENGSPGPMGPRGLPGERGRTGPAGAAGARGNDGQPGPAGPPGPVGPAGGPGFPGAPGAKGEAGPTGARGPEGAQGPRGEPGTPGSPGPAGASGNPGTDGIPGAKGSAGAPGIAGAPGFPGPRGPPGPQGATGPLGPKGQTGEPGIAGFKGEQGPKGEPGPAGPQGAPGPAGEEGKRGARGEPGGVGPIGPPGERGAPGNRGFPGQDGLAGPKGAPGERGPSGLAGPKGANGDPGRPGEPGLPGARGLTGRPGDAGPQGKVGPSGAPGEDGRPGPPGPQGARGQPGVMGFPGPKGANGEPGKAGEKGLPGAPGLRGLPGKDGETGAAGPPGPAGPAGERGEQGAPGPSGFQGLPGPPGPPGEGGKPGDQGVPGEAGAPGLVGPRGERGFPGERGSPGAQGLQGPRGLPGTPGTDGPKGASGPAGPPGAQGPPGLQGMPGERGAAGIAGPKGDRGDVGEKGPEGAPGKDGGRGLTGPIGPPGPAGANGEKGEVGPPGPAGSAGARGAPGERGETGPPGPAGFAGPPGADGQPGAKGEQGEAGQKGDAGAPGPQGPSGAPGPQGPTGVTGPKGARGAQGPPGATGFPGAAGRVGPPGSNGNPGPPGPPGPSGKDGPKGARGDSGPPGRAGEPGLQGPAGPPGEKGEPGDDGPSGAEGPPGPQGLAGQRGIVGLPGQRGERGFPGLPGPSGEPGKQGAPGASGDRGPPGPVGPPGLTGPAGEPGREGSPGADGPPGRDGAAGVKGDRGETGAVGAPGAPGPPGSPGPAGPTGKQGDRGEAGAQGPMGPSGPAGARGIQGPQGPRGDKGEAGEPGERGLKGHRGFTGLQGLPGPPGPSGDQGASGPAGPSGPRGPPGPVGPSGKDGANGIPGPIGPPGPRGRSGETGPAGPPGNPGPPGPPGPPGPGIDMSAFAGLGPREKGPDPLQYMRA

Binder | diffusion rate FCS (increase in PBS comprising ECM compound at equimolar concentration compared to PBS alone) [1] [%] | Kd [2] [nM] | Kd [3] [nM]
FAB-COLL-I: anti-digoxigenin antibody Fab conjugated to anti-collagen II antibody scFv I (bispecific antibody, Fab-scFv fusion; also called FAB-COLL-I (2 nM)) heavy: QVQLVESGGGLVKPGGSLRLSCAASGFTFSDYAMSWIRQAPGKGLEWVSSINIGATYIYYADSVKGRFTISRDNAKNSLYLQMNSLRAEDTAVYYCARPGSPYEYDKAYYSMAYWGQGTTVTVSSASTKGPSVFPLAPSSKSTSGGTAALGCLVKDYFPEPVTVSWNSGALTSGVHTFPAVLQSSGLYSLSSVVTVPSSSLGTQTYICNVNHKPSNTKVDKKVEPKSCGGGGSGGGGSEIVLTQSPATLSLSPGERATLSCRASQSVRDFLAWYQQKPGQAPRLLIYGASNRATGIPARFSGSGSGTDFTLTISSLEPEDFAVYYCQQRGSAPLTFGQGTKVEIKGGGGSGGGGSGGGGSGGGGSQVQLVQSGAEVKKPGSSVKVSCKASGGTFSSYAISWVRQAPGQGLEWMGGIIPIFGTANYAQKFQGRVTITADESTSTAYMELSSLRSEDTAVYYCARDPNGNIVLSEYFDYWGQGTLVTVSS light: not shown | 180 | 56 | 30
FAB-COLL-II: anti-digoxigenin antibody Fab conjugated to anti-collagen II antibody scFv II (bispecific antibody, Fab-scFv fusion; also called FAB-COLL-II (8 nM)) heavy: QVQLVESGGGLVKPGGSLRLSCAASGFTFSDYAMSWIRQAPGKGLEWVSSINIGATYIYYADSVKGRFTISRDNAKNSLYLQMNSLRAEDTAVYYCARPGSPYEYDKAYYSMAYWGQGTTVTVSSASTKGPSVFPLAPSSKSTSGGTAALGCLVKDYFPEPVTVSWNSGALTSGVHTFPAVLQSSGLYSLSSVVTVPSSSLGTQTYICNVNHKPSNTKVDKKVEPKSCGGGGSGGGGSEIVLTQSPATLSLSPGERATLSCRASQSVDDWLAWYQQKPGQAPRLLIYDASNRATGIPARFSGSGSGTDFTLTISSLEPEDFAVYYCQQGDTAPITFGQGTKVEIKGGGGSGGGGSGGGGSGGGGSQVQLVQSGAEVKKPGSSVKVSCKASGGTFSSYAISWVRQAPGQGLEWMGGIIPIFGTANYAQKFQGRVTITADESTSTAYMELSSLRSEDTAVYYCARNIVGDYLLDYWGQGTLVTVSS light: not shown | 260 | 50 | 15
FAB-COLL-III: anti-digoxigenin antibody Fab conjugated to anti-collagen II antibody scFv III (bispecific antibody, Fab-scFv fusion; also called FAB-COLL-III (8 nM)) heavy: QVQLVESGGGLVKPGGSLRLSCAASGFTFSDYAMSWIRQAPGKGLEWVSSINIGATYIYYADSVKGRFTISRDNAKNSLYLQMNSLRAEDTAVYYCARPGSPYEYDKAYYSMAYWGQGTTVTVSSASTKGPSVFPLAPSSKSTSGGTAALGCLVKDYFPEPVTVSWNSGALTSGVHTFPAVLQSSGLYSLSSVVTVPSSSLGTQTYICNVNHKPSNTKVDKKVEPKSCGGGGSGGGGSEIVLTQSPATLSLSPGERATLSCRASQSVADWLAWYQQKPGQAPRLLIYDASNRATGIPARFSGSGSGTDFTLTISSLEPEDFAVYYCQQYDGWPITFGQGTKVEIKGGGGSGGGGSGGGGSGGGGSQVQLVQSGAEVKKPGSSVKVSCKASGGTFSSYAISWVRQAPGQGLEWMGGIIPIFGTANYAQKFQGRVTITADESTSTAYMELSSLRSEDTAVYYCARHLYYMLDYWGQGTLVTVSS light: not shown | 40 | 342 | 180

Reference: patent publication US20190225676A1 (Hoffmann-La Roche, published 2019)
